# Measurements: US12280095B2, “Tissue modifier and uses therefor” (Fibrosoft Pte Ltd, priority 2021, dated 2025)
# B1: ALTEPLASE: tissue plasminogen activator (tPA), collagenase-producing agent; comparator when administered on its own (protein, UniProt P00750 36-562, looked up)
# Tissue-type plasminogen …: SYQVICRDEKTQMIYQQHQSWLRPVLRSNRVEYCWCNSGRAQCHSVPVKSCSEPRCFNGGTCQQALYFSDFVCQCPEGFAGKCCEIDTRATCYEDQGISYRGTWSTAESGAECTNWNSSALAQKPYSGRRPDAIRLGLGNHNYCRNPDRDSKPWCYVFKAGKYSSEFCSTPACSEGNSDCYFGNGSAYRGTHSLTESGASCLPWNSMILIGKVYTAQNPSAQALGLGKHNYCRNPDGDAKPWCHVLKNRRLTWEYCDVPSCSTCGLRQYSQPQFRIKGGLFADIASHPWQAAIFAKHRRSPGERFLCGGILISSCWILSAAHCFQERFPPHHLTVILGRTYRVVPGEEEQKFEVEKYIVHKEFDDDTYDNDIALLQLKSDSSRCAQESSVVRTVCLPPADLQLPDWTECELSGYGKHEALSPFYSERLKEAHVRLYPSSRCTSQHLLNRTVTDNMLCAGDTRSGGPQANLHDACQGDSGGPLVCLNDGRMTLVGIISWGLGCGQKDVPGVYTKVTNYLDWIRDNMRP
# Tested on: Dupuytren's disease
# Assay: Treatment of Dupuytren's disease patients by intralesional injection of tPA in combination with hyaluronidase
# Format: in vivo, human
molecule,measurement,setting,value
B1,"mean time required to observe discernible reduction in volume of the fibromatosis, reduction of contracture and improvement in the range of motion","ALTEPLASE administered on its own, patients with Dupuytren's disease",4-6 weeks
same,"time required to obtain similar effects (volume reduction, flexion improvement)",ALTEPLASE alone,4-6 weeks
